test system: Escherichia coli TOP10; test: shrunken log2 fold change of peptide-encoding DNA abundance (4.5 h post-induction vs induction); higher = less antimicrobial activity (less host growth inhibition); details: time post-induction: 4.5 h; library: site-saturation at positions 5, 18, 19, 20
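Note: peptides expressed intracellularly from a pBAD plasmid library in pooled LB shake-flask culture, induced with 0.3% L-arabinose, DNA abundance read by NGS, three biological replicates, DESeq2 with apeglm shrinkage.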

| Sequence | shrunken log2 fold change |
| --- | --- |
| RRIRERPPRLPRPRPRPCTTPRP | -0.172 |
| RRIRIRPPRLPRPRPRPAFCPRP | 0.167 |
| RRIRIRPPRLPRPRPRPIRIPRP | 0.0736 |
| RRIRTRPPRLPRPRPRPSQTPRP | -0.169 |
| RRIRPRPPRLPRPRPRPGNIPRP | -0.000778 |
| RRIRVRPPRLPRPRPRPELAPRP | 0.659 |
| RRIRERPPRLPRPRPRPYECPRP | -0.0425 |
| RRIRFRPPRLPRPRPRPHLYPRP | -0.355 |
| RRIRSRPPRLPRPRPRPDILPRP | 0.115 |
| RRIRMRPPRLPRPRPRPPHQPRP | 0.634 |
| RRIRYRPPRLPRPRPRPMALPRP | -0.142 |
| RRIRYRPPRLPRPRPRPYSYPRP | -0.395 |
| RRIRNRPPRLPRPRPRPVTVPRP | -0.404 |
| RRIRERPPRLPRPRPRPYWNPRP | -0.858 |
| RRIRLRPPRLPRPRPRPDNLPRP | -0.186 |
| RRIRARPPRLPRPRPRPIIDPRP | 0.216 |
| RRIRRRPPRLPRPRPRPCDCPRP | 0.00422 |
| RRIRKRPPRLPRPRPRPMTTPRP | 0.31 |
| RRIRMRPPRLPRPRPRPNHQPRP | -0.105 |
| RRIRDRPPRLPRPRPRPYPKPRP | -0.143 |
| RRIRGRPPRLPRPRPRPAHRPRP | 0.224 |
| RRIRMRPPRLPRPRPRPVRGPRP | 1.18 |
| RRIRNRPPRLPRPRPRPDLEPRP | 0.124 |
| RRIRWRPPRLPRPRPRPTFRPRP | -0.0799 |
| RRIRERPPRLPRPRPRPFQRPRP | -0.0653 |

| Sequence | shrunken log2 fold change |
| --- | --- |
| RRIRGRPPRLPRPRPRPCWIPRP | -0.0658 |
| RRIRHRPPRLPRPRPRPFVTPRP | -0.188 |
| RRIRARPPRLPRPRPRPERPPRP | 0.556 |
| RRIRARPPRLPRPRPRPFHLPRP | -0.36 |
| RRIRARPPRLPRPRPRPFTSPRP | 0.0705 |
| RRIRCRPPRLPRPRPRPRQMPRP | -0.136 |
| RRIRMRPPRLPRPRPRPGNWPRP | 0.561 |
| RRIRYRPPRLPRPRPRPKTIPRP | -0.421 |
| RRIRIRPPRLPRPRPRPLDQPRP | -0.127 |
| RRIRVRPPRLPRPRPRPPFRPRP | 0.421 |
| RRIRVRPPRLPRPRPRPSCEPRP | -0.303 |
| RRIRERPPRLPRPRPRPTYFPRP | -0.475 |
| RRIRSRPPRLPRPRPRPMGYPRP | -0.0075 |
| RRIRNRPPRLPRPRPRPGDEPRP | 0.0115 |
| RRIRQRPPRLPRPRPRPPSMPRP | -0.234 |
| RRIRFRPPRLPRPRPRPDCFPRP | -0.00719 |
| RRIRCRPPRLPRPRPRPDMYPRP | -0.561 |
| RRIRCRPPRLPRPRPRPWCMPRP | -0.585 |
| RRIRQRPPRLPRPRPRPGQKPRP | -0.00973 |
| RRIRYRPPRLPRPRPRPAFDPRP | 0.105 |
| RRIRWRPPRLPRPRPRPDFMPRP | -0.015 |
| RRIRQRPPRLPRPRPRPQRSPRP | 0.0623 |
| RRIRNRPPRLPRPRPRPKFTPRP | -0.0624 |
| RRIRRRPPRLPRPRPRPPAEPRP | 0.851 |
| RRIRLRPPRLPRPRPRPCSIPRP | -0.678 |

| Sequence | shrunken log2 fold change |
| --- | --- |
| RRIRDRPPRLPRPRPRPNEYPRP | 0.0406 |
| RRIRMRPPRLPRPRPRPEKDPRP | 2.62 |
| RRIRPRPPRLPRPRPRPKIAPRP | -0.1 |
| RRIRRRPPRLPRPRPRPYKEPRP | -0.463 |
| RRIRHRPPRLPRPRPRPCKSPRP | 0.0139 |
| RRIRFRPPRLPRPRPRPPMEPRP | -0.0751 |
| RRIRIRPPRLPRPRPRPIVYPRP | -0.383 |
| RRIRCRPPRLPRPRPRPIPVPRP | -0.376 |
| RRIRMRPPRLPRPRPRPHSTPRP | 0.126 |
| RRIRSRPPRLPRPRPRPYGRPRP | -0.151 |
| RRIRLRPPRLPRPRPRPQNLPRP | -0.149 |
| RRIRLRPPRLPRPRPRPRSPPRP | 0.803 |
| RRIRHRPPRLPRPRPRPDNSPRP | -1.1 |
| RRIRRRPPRLPRPRPRPWLTPRP | -0.245 |
| RRIRDRPPRLPRPRPRPFAAPRP | 1.62 |
| RRIRTRPPRLPRPRPRPAPRPRP | 1.39 |
| RRIRVRPPRLPRPRPRPWQLPRP | -0.421 |
| RRIRRRPPRLPRPRPRPELVPRP | 0.27 |
| RRIRVRPPRLPRPRPRPMIDPRP | -0.283 |
| RRIRRRPPRLPRPRPRPIQWPRP | -0.105 |
| RRIRERPPRLPRPRPRPKYFPRP | -0.0979 |
| RRIRPRPPRLPRPRPRPNEEPRP | -0.0581 |
| RRIRNRPPRLPRPRPRPNTGPRP | 0.0312 |
| RRIRFRPPRLPRPRPRPGPAPRP | 0.544 |
| RRIRLRPPRLPRPRPRPAGSPRP | 0.268 |

| Sequence | shrunken log2 fold change |
| --- | --- |
| RRIRLRPPRLPRPRPRPHSIPRP | -0.191 |
| RRIRPRPPRLPRPRPRPLNYPRP | -0.615 |
| RRIRARPPRLPRPRPRPLCSPRP | 0.197 |
| RRIRYRPPRLPRPRPRPGWPPRP | 0.0827 |
| RRIRNRPPRLPRPRPRPYSHPRP | -0.317 |
| RRIRERPPRLPRPRPRPHMFPRP | -0.749 |
| RRIRNRPPRLPRPRPRPQQRPRP | -0.0535 |
| RRIRTRPPRLPRPRPRPCLWPRP | -0.0838 |
| RRIRRRPPRLPRPRPRPLDWPRP | 0.297 |
| RRIRFRPPRLPRPRPRPPRAPRP | 0.92 |
| RRIRHRPPRLPRPRPRPRYLPRP | -0.0229 |
| RRIRCRPPRLPRPRPRPCSNPRP | -0.274 |
| RRIRPRPPRLPRPRPRPLCAPRP | 0.119 |
| RRIRKRPPRLPRPRPRPCAAPRP | 0.421 |
| RRIRARPPRLPRPRPRPMPEPRP | 0.18 |
| RRIRIRPPRLPRPRPRPLLVPRP | -0.565 |
| RRIRTRPPRLPRPRPRPGERPRP | 0.113 |
| RRIRDRPPRLPRPRPRPIRGPRP | -0.0417 |
| RRIRLRPPRLPRPRPRPIYWPRP | -0.0187 |
| RRIRDRPPRLPRPRPRPRVEPRP | 0.137 |
| RRIRPRPPRLPRPRPRPGPMPRP | 0.293 |
| RRIRERPPRLPRPRPRPYSTPRP | -0.335 |
| RRIRQRPPRLPRPRPRPLASPRP | 0.00224 |
| RRIRNRPPRLPRPRPRPQRIPRP | -0.47 |
| RRIRLRPPRLPRPRPRPQEAPRP | 0.0514 |

| Sequence | shrunken log2 fold change |
| --- | --- |
| RRIRTRPPRLPRPRPRPWIDPRP | -0.0368 |
| RRIRVRPPRLPRPRPRPAKLPRP | 0.139 |
| RRIRRRPPRLPRPRPRPFIIPRP | -0.323 |
| RRIRVRPPRLPRPRPRPHANPRP | 0.25 |
| RRIRARPPRLPRPRPRPCSSPRP | 0.0291 |
| RRIRKRPPRLPRPRPRPIELPRP | -0.025 |
| RRIRARPPRLPRPRPRPPEQPRP | 0.941 |
| RRIRMRPPRLPRPRPRPNAEPRP | -0.0356 |
| RRIRQRPPRLPRPRPRPYWIPRP | -0.152 |
| RRIRLRPPRLPRPRPRPPNMPRP | -0.076 |
| RRIRSRPPRLPRPRPRPTSHPRP | -0.0965 |
| RRIRWRPPRLPRPRPRPSEGPRP | 0.0528 |
| RRIRSRPPRLPRPRPRPIANPRP | -0.0897 |
| RRIRCRPPRLPRPRPRPNCYPRP | -0.209 |
| RRIRYRPPRLPRPRPRPWSTPRP | -0.458 |
| RRIRLRPPRLPRPRPRPIIYPRP | -0.196 |
| RRIRSRPPRLPRPRPRPHIHPRP | 0.966 |
| RRIRNRPPRLPRPRPRPEYPPRP | -0.243 |
| RRIRNRPPRLPRPRPRPPQIPRP | 0.013 |
| RRIRYRPPRLPRPRPRPGCAPRP | -0.139 |
| RRIRKRPPRLPRPRPRPRPYPRP | 0.182 |
| RRIRCRPPRLPRPRPRPESDPRP | 0.242 |
| RRIRERPPRLPRPRPRPHALPRP | -0.236 |
| RRIRGRPPRLPRPRPRPNKNPRP | 0.3 |
| RRIRVRPPRLPRPRPRPRHIPRP | -0.508 |

| Sequence | shrunken log2 fold change |
| --- | --- |
| RRIRCRPPRLPRPRPRPYNAPRP | -1.23 |
| RRIRNRPPRLPRPRPRPPHHPRP | -0.11 |
| RRIRWRPPRLPRPRPRPYQRPRP | -0.85 |
| RRIRERPPRLPRPRPRPCLTPRP | -0.0208 |
| RRIRFRPPRLPRPRPRPGEVPRP | 0.185 |
| RRIRPRPPRLPRPRPRPRRYPRP | -0.0175 |
| RRIRRRPPRLPRPRPRPHIDPRP | -0.43 |
| RRIRARPPRLPRPRPRPGPWPRP | 0.193 |
| RRIRTRPPRLPRPRPRPTCRPRP | -0.0601 |
| RRIRSRPPRLPRPRPRPQVFPRP | 0.0316 |
| RRIRLRPPRLPRPRPRPKAIPRP | 0.0195 |
| RRIRHRPPRLPRPRPRPLWRPRP | 0.57 |
| RRIRSRPPRLPRPRPRPDRFPRP | -0.0456 |
| RRIRGRPPRLPRPRPRPSRDPRP | 0.921 |
| RRIRDRPPRLPRPRPRPSSEPRP | 0.186 |
| RRIRERPPRLPRPRPRPWEVPRP | -0.17 |
| RRIRLRPPRLPRPRPRPSTDPRP | -0.356 |
| RRIRDRPPRLPRPRPRPCIIPRP | -0.0943 |
| RRIRPRPPRLPRPRPRPHQTPRP | -0.0729 |
| RRIRYRPPRLPRPRPRPDIRPRP | -0.00867 |
| RRIRKRPPRLPRPRPRPQRFPRP | -0.00315 |
| RRIRQRPPRLPRPRPRPVVNPRP | -0.126 |
| RRIRARPPRLPRPRPRPFVWPRP | 0.204 |
| RRIRKRPPRLPRPRPRPWSWPRP | 0.00624 |
| RRIRGRPPRLPRPRPRPSYCPRP | 0.237 |
